According to patent publication US20080286819A1:

Assays:
[1] = target: Human soluble FcγRIIB (human) (UniProt P31994); assay: SPR, soluble human Fc-receptor
[2] = target: Human soluble FcγRIIIA^158F (human) (UniProt P08637); assay: SPR, soluble human Fc-receptor
[3] = target: Human soluble FcγRIIA^131H (human) (UniProt P12318); assay: SPR, soluble human Fc-receptor
[4] = target: Human soluble FcγRIIA^131H (human) (UniProt P12318); assay: ratio of SPR affinities; reference human FcγRIIB
[5] = target: Human soluble FcγRIIIA^158F (human) (UniProt P08637); assay: ratio of SPR affinities; reference human FcγRIIB
[6] = target: Human soluble FcγRIIA^131H (human) (UniProt P12318); assay: SPR (Biacore), antibody immobilized, soluble FcγR injected
[7] = target: Human soluble FcγRIIA^131R (human) (UniProt P12318); assay: as above
[8] = target: Human soluble FcγRIIIA^158F (human) (UniProt P08637); assay: as above
[9] = target: Mouse soluble FcγRI (mouse) (UniProt P26151); assay: as above
[10] = target: Mouse soluble FcγRIIB (mouse) (UniProt P08101); assay: as above
[11] = target: Mouse soluble FcγRIII (mouse) (UniProt P08508); assay: as above
[12] = target: Mouse soluble FcγRIV (mouse); assay: as above
[13] = target: Human soluble FcγRIIIA^158F (human) (UniProt P08637); assay: SPR (Biacore), antibody immobilized; + = detectable but very low binding
[14] = target: Mouse soluble FcγRIIB (mouse) (UniProt P08101); assay: as above
[15] = target: Mouse soluble FcγRIII (mouse) (UniProt P08508); assay: as above
[16] = target: Human soluble FcγRIIB (human) (UniProt P31994); assay: SPR (Biacore), antibody immobilized, soluble FcγR injected
[17] = target: Mouse soluble FcγRIV (mouse); assay: SPR (Biacore), antibody immobilized; + = detectable but very low binding
[18] = target: Human soluble FcγRIIB (human) (UniProt P31994); assay: SPR; reference human FcγRIIIA and FcγRIIA
[19] = target: Human soluble FcγRIIA^131H (human) (UniProt P12318); assay: SPR (Biacore), antibody immobilized; + = detectable but very low binding
[20] = target: Human soluble FcγRIIA^131R (human) (UniProt P12318); assay: as above
[21] = target: Mouse soluble FcγRIIB (mouse) (UniProt P08101); assay: SPR; reference mouse FcγRIII
[22] = target: Mouse soluble FcγRIII (mouse) (UniProt P08508); assay: ratio of SPR affinities; reference mouse FcγRIIB
[23] = target: Mouse soluble FcγRIV (mouse); assay: SPR; reference mouse FcγRIIB
[24] = target: Mouse soluble FcγRIV (mouse); assay: ratio of SPR affinities; reference mouse FcγRIIB

UniProt P31994, sequence (P31994 43-217): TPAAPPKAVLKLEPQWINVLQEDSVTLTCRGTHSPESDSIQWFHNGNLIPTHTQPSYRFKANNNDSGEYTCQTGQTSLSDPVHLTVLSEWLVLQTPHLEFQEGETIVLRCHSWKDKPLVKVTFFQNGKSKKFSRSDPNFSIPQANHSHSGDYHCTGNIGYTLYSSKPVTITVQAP
UniProt P08101, sequence (P08101 30-210): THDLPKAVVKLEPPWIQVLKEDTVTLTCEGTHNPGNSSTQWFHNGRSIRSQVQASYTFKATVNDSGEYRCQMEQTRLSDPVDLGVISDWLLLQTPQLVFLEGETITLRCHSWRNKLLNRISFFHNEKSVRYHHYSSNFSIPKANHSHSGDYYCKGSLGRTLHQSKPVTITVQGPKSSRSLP
UniProt P08508, sequence (P08508 31-215): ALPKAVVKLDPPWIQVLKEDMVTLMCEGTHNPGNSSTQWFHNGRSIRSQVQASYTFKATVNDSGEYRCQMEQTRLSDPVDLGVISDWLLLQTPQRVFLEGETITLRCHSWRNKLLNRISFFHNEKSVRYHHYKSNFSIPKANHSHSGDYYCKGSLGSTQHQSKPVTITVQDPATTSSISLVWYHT
UniProt P26151, sequence (P26151 25-297): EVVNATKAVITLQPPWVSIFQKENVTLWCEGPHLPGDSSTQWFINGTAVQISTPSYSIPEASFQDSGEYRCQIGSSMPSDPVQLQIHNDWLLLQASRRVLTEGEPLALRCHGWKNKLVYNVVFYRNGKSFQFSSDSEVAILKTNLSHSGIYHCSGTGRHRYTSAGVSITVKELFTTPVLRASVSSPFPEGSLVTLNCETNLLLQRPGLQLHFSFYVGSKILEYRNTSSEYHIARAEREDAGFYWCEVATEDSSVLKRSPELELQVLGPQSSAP
UniProt P08637, sequence (P08637 17-208): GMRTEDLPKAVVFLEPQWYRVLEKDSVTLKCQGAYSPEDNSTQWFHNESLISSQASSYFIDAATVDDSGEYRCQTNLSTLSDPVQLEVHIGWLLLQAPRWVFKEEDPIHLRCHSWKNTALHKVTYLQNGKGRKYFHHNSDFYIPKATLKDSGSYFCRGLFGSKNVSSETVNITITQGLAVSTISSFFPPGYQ

Ka [6] [M⁻¹] | Ka [7] [M⁻¹] | Ka [8] [M⁻¹] | Ka [9] [M⁻¹] | Ka [10] [M⁻¹] | Ka [11] [M⁻¹] | Ka [12] [M⁻¹] | Ka [13] [M⁻¹] | Ka [16] [M⁻¹] | Substance | also measured
120000 | 240000 | 180000 | 1.2e+06 | 83000 |  |  |  | 70000 | hIgG3 (FITC-isotype switch variant) (antibody) | Ka [17]: < 10000 M⁻¹
40000 | 250000 |  |  | 3.3e+06 | 310000 |  | < 10000 | 100000 | mIgG1 (FITC-isotype switch variant) (antibody) | fold higher affinity than to FcγRIII [21]: 10 fold; A/I (ratio of KA for the activating receptor FcγRIII to KA for the inhibitory FcγRIIB) [22]: 0.1
120000 | 91000 | 10000 |  | 2.2e+06 | 640000 | 1.7e+07 |  | 120000 | mIgG2b (FITC-isotype switch variant) (antibody) | fold higher affinity than to FcγRIIB [23]: 10 fold; A/I (ratio of KA for the activating receptor FcγRIV to KA for the inhibitory FcγRIIB) [24]: 7
 |  |  |  |  |  |  | < 10000 |  | mIgG3 (FITC-isotype switch variant) (antibody) | Ka [19]: < 10000 M⁻¹; Ka [20]: < 10000 M⁻¹

Second part, the substance before the results:

Substance | Ka [6] [M⁻¹] | Ka [7] [M⁻¹] | Ka [8] [M⁻¹] | Ka [9] [M⁻¹] | Ka [10] [M⁻¹] | Ka [11] [M⁻¹] | Ka [12] [M⁻¹] | Ka [13] [M⁻¹] | Ka [16] [M⁻¹] | also measured
FITC-IgG1-Fucose (human IgG1 Fc-switch variant of the 4-4-20 antibody lacking fucose) |  |  |  |  |  |  |  |  |  | Ka [1]: 78100 M⁻¹; Kd [1]: 12.8 µM; Ka [2]: 5.97e+06 M⁻¹; Kd [2]: 0.168 µM
FITC-IgG2-Fucose (human IgG2 Fc-switch variant of the 4-4-20 antibody lacking fucose) |  |  |  |  |  |  |  |  |  | Ka [3]: 135000 M⁻¹; Kd [3]: 7.4 µM; Ka [1]: 25400 M⁻¹; Kd [1]: 39.4 µM; Ka [2]: 144000 M⁻¹; Kd [2]: 6.93 µM; A/I ratio IIA/IIB (KA for FcγRIIA over KA for FcγRIIB) [4]: 5.31; A/I ratio IIIA/IIB (KA for FcγRIIIA over KA for FcγRIIB) [5]: 5.67
hIgG1 (FITC-isotype switch variant, human Fc-switch variant of the 4-4-20 antibody) | 380000 | 270000 | 430000 | 3.8e+06 | 200000 | 35000 | 2.2e+06 |  |  | 
hIgG2 (FITC-isotype switch variant, human Fc-switch variant of the 4-4-20 antibody) | 120000 | 21000 |  |  |  |  |  | < 10000 |  | Ka [14]: < 10000 M⁻¹; Ka [15]: < 10000 M⁻¹
hIgG4 (FITC-isotype switch variant) (antibody) |  |  |  | 72000 |  |  |  |  | 48000 | fold higher affinity than to FcγRIIIA and FcγRIIA [18]: > 4.8 fold; Ka [19]: < 10000 M⁻¹; Ka [20]: < 10000 M⁻¹; Ka [14]: < 10000 M⁻¹; Ka [15]: < 10000 M⁻¹; Ka [17]: < 10000 M⁻¹
mIgG2a (FITC-isotype switch variant) (antibody) | 170000 | 320000 |  | 1.8e+08 | 420000 | 680000 | 2.9e+07 |  | 160000 | 
